Consider 8 molecules from patent US7053177B1, “Random peptides that bind to gastro-intestinal tract (GIT) transport receptors and related methods” (Cytogen Corporation, priority 1997, dated 2006).

Square brackets hold non-standard residues; d marks the D form. Ends that are not written are not given here. Peptide text beside a SMILES is read from it. * marks the point of attachment. Dansyl = CN(C)c1cccc2c(S(=O)(=O)*)cccc12

The target of one data set is T1, hPEPT1 (Homo sapiens, UniProt P46059).
T1 construct: 391–571; made in house
T1 sequence (P46059 391-571): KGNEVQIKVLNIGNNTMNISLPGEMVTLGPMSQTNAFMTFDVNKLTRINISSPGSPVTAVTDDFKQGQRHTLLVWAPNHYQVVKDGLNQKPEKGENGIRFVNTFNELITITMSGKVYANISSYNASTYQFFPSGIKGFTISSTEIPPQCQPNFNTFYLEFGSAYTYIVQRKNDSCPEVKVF
In words: Receptor ELISA of phage on recombinant hPEPT1. Particulars: Table 4. The data set is classed as binding. The protocol:
(§1) 96 well plates were coated overnight with GIT receptor, BSA and, optionally, IDE (insulin degrading enzyme, an irrelevant His-fusion protein)or hTF. The plates were blocked for one hour with 0.5% BSA-PBS. After clarification, the amplified phage were diluted 1:100 in 1% BSA plus 0.05% Tween 20 in PBS and added to the plates. Following incubation of the plates on a rotator for 1 to 2 hours, the plates were washed 5 times with 1% BSA plus 0.05% Tween 20 in PBS. […] After the plates were washed 5 times, as described above, TMB substrate was added to the wells. The plates were read at 650 nm absorbance.
(In general: An ELISA detects its analyte on a solid surface through an enzyme-linked reagent.)

For another data set, the target named is BSA (Bos taurus, UniProt P02769). In words: Receptor ELISA of phage on BSA (background control protein). It counts as binding. Particulars: Table 4; phage panned on hPEPT1. The method, then:
96 well plates were coated overnight with GIT receptor, BSA and, optionally, IDE (insulin degrading enzyme, an irrelevant His-fusion protein)or hTF. The plates were blocked for one hour with 0.5% BSA-PBS. After clarification, the amplified phage were diluted 1:100 in 1% BSA plus 0.05% Tween 20 in PBS and added to the plates. Following incubation of the plates on a rotator for 1 to 2 hours, the plates were washed 5 times with 1% BSA plus 0.05% Tween 20 in PBS. Dilute anti-M13-HRP conjugate (anti-M13 antibody linked to horse radish peroxidase (HRP)) was added to all the wells and the plate was incubated for one hour on a rotator. After the plates were washed 5 times, as described above, TMB substrate was added to the wells. The plates were read at 650 nm absorbance.

Data set [1] concerns rat gastro-intestinal tract (closed loop). In words: Transport of preselected phage libraries in rat closed loop, detected by oligonucleotide hybridization/autoradiography. The note with it: hPEPT1 pool; in words. The protocol: Four preselected phage libraries, GI-D2H, GI-hSI, GI-HPT1 and GI-hPEPT1, were constructed by pooling phage previously selected by screening random phage display libraries D38 and DC43 using the HPT1, HPEPT1, D2H and hSI receptor or binding sites located in the GIT.
In particular, phages selected in vitro to each receptor or binding site located in the GIT were amplified in E. coli, PEG-precipitated, resuspended in TBS and the titer of each phage sample was determined by plaquing in E. coli as described above. […] Using the in situ loop model described above, 0.5 ml of preselected phage library solution was injected into the tied-off portion of the duodenum/jejunum. Blood was collected into heparinized tubes from the portal vein at 0, 15, 30, 45 and 60 minutes. A blood sample was taken from the systemic circulation at the end of the experiment. Similarly, the portion of the duodenum/jejunum used for phage injection was taken at the end of the experiment.
Thirty microliters of the collected portal blood (neat and 10^−2, 10^−1, 10^−6 dilutions) was added to 30 μl E. coli K91Kan cells (overnight culture) and incubated at 37° C. for 10 min. Subsequently, 3 ml of top agarose was added and the samples were plated for plaques. One hundred microliters of the collected portal blood was added to 100 μl of E. coli K91Kan. Five milliliters of LB medium was then added and the samples were incubated at 37° C. overnight in a rotating microbial incubator. The E. coli was removed by centrifugation and the amplified phage supernatant samples were either titered directly or were PEG-precipitated, resuspended in TBS and titered. Following titration of the amplified phage, samples containing phage from each set of animals were combined, adjusting the titer of each sample to the same titer, and were plated for plaques on LB agar lates (22 cm^2 square plates). Either 12,000 or 24,000 phage were lated for plaques.
Thirty microliters of the collected systemic blood (neat and 10^−2, 10^−1, 10^−6 dilutions) was added to E. coli K91Kan cells, incubated at 37° C. for 10 min. Three ml of top agarose was then added and the samples were plated for plaques. One hundred microliters of the collected systemic blood was added to 100 μl of E. coli K91Kan, incubated at 37° C. for 10 min. Five milliliters of LB medium was then added and the samples were incubated at 37° C. overnight in a rotating microbial incubator. The E. coli was removed by centrifugation and the amplified phage supernatant samples were either titered directly or were PEG-precipitated, resuspended in TBS and titered. Following titration of the amplified phage, samples containing phage from each set of animals were combined, adjusting the titer of each sample to the same titer, and were plated for plaques on LB agar plates (22 cm^2 square plates). Either 12,000 or 24,000 phage were plated for plaques.
The intestinal tissue portion used in each closed loop was excised. […] Alternatively, the tissue (in PBS supplemented with protease inhibitors) was homogenized in an Ultra Thorex homogenizer, washed 3 times in PBS containing protease inhibitors and resuspended in PBS containing protease inhibitors (Int-G samples). In each case, serial dilutions (neat and 10^−2, 10^−4, 10^−6 dilutions) of the tissue homogenate was titered in E. coli.
The phage amplified from the portal blood, systemic blood and intestinal tissue was plated for plaques. […] The filters were air-dried, and the DNA was cross-linked to the filter (UV crosslinking: 2 min, high setting). The filters were incubated in pre-hybridization buffer (6×SSC, 5× Denhardt's solution, 0.1% SDS, […] yeast tRNA) at 40° C.–45° C. for at least 60 min.
Synthetic oligonucleotides, (22-mers), complimentary to regions coding for the receptor or binding sites used to create the preselected phage library, were synthesized (see Table 14 below).

Data set [2] in a line: Peptide stability in simulated intestinal fluid (SIF). It counts as in vitro ADME. The note with it: rank of relative stability to SIF. The method, then:
Peptide (3.25 mg) was dissolved in 3.25 ml of 10,000 fold diluted SIF solution at 37° C. Aliquots (0.7 ml) of the digestion solution were then withdrawn at <1 min, 1h, 3h, and 21h or 24h. The samples were quickly passed through a syringe filter (Millipore Millex-GV 0.22 μm, part# SLGV025LS, lot# H2BM95250) and 300 μL of the filtered solution was immediately injected onto a Hewlett-Packard HPLC system equipped with a C-8 column (Applied Biosystems column and guard column: column-p/n 0711-0023 Spheri-5 ODS 5 μm, 220×4.6 mm). The products were eluted at 1.5 ml/min using an acetonitrile-water gradient. The major fluorescent peaks were collected, lyopholized and identified by MS analysis.

In data set [3] the target is bovine serum albumin (bovine) (UniProt P02769). Put plainly: phage ELISA on coated BSA.
The target in data set [4] is T2, recombinant HPT1 receptor domain (human intestinal peptide-associated transporter HPT1, amino acid residues … (human, UniProt Q12864 29-273)).
T2 construct: purified under denaturing conditions; coated on plates
T2 sequence: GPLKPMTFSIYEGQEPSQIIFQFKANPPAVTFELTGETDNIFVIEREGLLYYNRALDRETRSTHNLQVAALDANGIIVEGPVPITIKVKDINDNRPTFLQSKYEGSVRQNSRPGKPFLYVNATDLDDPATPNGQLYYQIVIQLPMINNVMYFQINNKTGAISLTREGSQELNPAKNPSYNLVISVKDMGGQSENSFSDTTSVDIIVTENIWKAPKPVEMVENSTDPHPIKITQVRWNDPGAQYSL
In words: phage ELISA, OD on HPT1 over OD on BSA. The protocol: as §1, with “6.6. Receptor ELISA Procedure 96” for “96”

Data set [5] concerns the target T3, recombinant HPT1 receptor domain (human intestinal peptide-associated transporter HPT1, amino acid residues 29-273), His-tag fusion protein (human) (UniProt Q12864).
T3 sequence: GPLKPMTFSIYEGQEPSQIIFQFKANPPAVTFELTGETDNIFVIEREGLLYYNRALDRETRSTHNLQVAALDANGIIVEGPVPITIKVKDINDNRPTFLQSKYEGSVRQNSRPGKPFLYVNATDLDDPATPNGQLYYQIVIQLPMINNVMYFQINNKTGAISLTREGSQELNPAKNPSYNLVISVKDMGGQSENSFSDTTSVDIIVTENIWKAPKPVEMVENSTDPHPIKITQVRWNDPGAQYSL
Put plainly: phage ELISA on coated HPT1.

For data set [6], the target named is T3, recombinant HPT1 receptor domain (human intestinal peptide-associated transporter HPT1, amino acid residues 29-273), His-tag fusion protein (human). Put plainly: phage ELISA, OD on HPT1 over OD on BSA.

Chain of bovine serum albumin (bovine) (P02769 25-607 limits assumed): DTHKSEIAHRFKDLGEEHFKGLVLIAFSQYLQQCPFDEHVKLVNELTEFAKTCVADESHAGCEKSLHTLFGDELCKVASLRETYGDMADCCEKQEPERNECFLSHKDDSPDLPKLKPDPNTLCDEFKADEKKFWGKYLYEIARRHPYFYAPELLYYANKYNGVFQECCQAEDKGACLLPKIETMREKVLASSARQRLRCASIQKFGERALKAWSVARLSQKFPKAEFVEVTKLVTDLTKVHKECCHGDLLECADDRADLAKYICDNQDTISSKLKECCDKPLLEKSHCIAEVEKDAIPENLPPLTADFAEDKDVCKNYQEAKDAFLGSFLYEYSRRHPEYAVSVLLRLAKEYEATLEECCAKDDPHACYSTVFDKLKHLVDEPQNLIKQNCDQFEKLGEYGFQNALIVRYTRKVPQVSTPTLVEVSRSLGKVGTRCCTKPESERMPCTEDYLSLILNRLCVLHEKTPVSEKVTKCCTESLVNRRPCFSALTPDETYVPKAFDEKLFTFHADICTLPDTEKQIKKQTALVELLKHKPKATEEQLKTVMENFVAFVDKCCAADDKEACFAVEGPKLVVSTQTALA
Chain of BSA (P02769 25-607): as the sequence (P02769 25-607 limits assumed) above

Take “RGSTGTAGGERSGVLNLHTRDNASGSGFKPWYPSNRGHK (not fully specified) [Peptide 5PAX5]”: the hPEPT1 with hPEPT1 (phage panned on hPEPT1) is 0.15 OD. The PEPT1/BSA in the data set with hPEPT1 (ratio of hPEPT1 to BSA binding) is recorded as 4. For the same molecule, in the data set with BSA, the BSA stood at 0.036 OD. Also, in data set [1], the “Binding to / presence in the intestine samples” value is listed as “not found”, the “Presence in the portal circulation” value was “not found” and the “Presence in the systemic circulation” value is reported as “found in the systemic circulation”.
As to `C[C@@H](O)[C@H](NC(=O)[C@@H](N)CCCCNS(=O)(=O)c1cccc2c(N(C)C)cccc12)C(=O)N[C@@H](CCCNC(=N)N)C(=O)N[C@@H](CCCCN)C(=O)N[C@@H](CO)C(=O)N[C@@H](CO)C(=O)N[C@H](CCCNC(=N)N)C(=O)N[C@@H](CO)C(=O)N[C@@H](CC(N)=O)C(=O)N1CCC[C@H]1C(=O)N[C@@H](CCCNC(=N)N)C(=O)NCC(=O)N[C@H](CCCNC(=N)N)C(=O)N[C@@H](CCCNC(=N)N)C(=O)N[C@@H](Cc1c[nH]cn1)C(=O)N1CCC[C@H]1C(=O)NCC(N)=O` [ZElan054, H2N-K(dns)TRKSSrSNPRGrRHPG-CONH2] (H-K(Dansyl)TRKSS[dR]SNPRG[dR]RHPG-NH2), in data set [2], the “Rel. Stab.” value is reported as 2.
As for `C[C@@H](O)[C@H](NC(=O)[C@@H](N)CCCCNS(=O)(=O)c1cccc2c(N(C)C)cccc12)C(=O)N[C@@H](CCCNC(=N)N)C(=O)N[C@@H](CCCCN)C(=O)N[C@@H](CO)C(=O)N[C@@H](CO)C(=O)N[C@@H](CCCNC(=N)N)C(=O)N[C@@H](CO)C(=O)N[C@@H](CC(N)=O)C(=O)N1CCC[C@H]1C(=O)N[C@@H](CCCNC(=N)N)C(=O)NCC(=O)N[C@@H](CCCNC(=N)N)C(=O)N[C@@H](CCCNC(=N)N)C(=O)N[C@@H](Cc1c[nH]cn1)C(=O)N1CCC[C@H]1C(=O)NCC(N)=O` [ZElan031] (H-K(Dansyl)TRKSSRSNPRGRRHPG-NH2), the “Rel. Stab.” value in data set [2] is reported as 3.
`C[C@@H](O)[C@H](NC(=O)[C@@H](N)CCCCNS(=O)(=O)c1cccc2c(N(C)C)cccc12)C(=O)N[C@H](CCCNC(=N)N)C(=O)N[C@@H](CCCCN)C(=O)N[C@@H](CO)C(=O)N[C@@H](CO)C(=O)N[C@H](CCCNC(=N)N)C(=O)N[C@@H](CO)C(=O)N[C@@H](CC(N)=O)C(=O)N1CCC[C@H]1C(=O)N[C@H](CCCNC(=N)N)C(=O)NCC(=O)N[C@H](CCCNC(=N)N)C(=O)N[C@H](CCCNC(=N)N)C(=O)N[C@@H](Cc1c[nH]cn1)C(=O)N1CCC[C@H]1C(=O)NCC(N)=O` [ZElan053, H2N-K(dns)TrKSSrSNPrGrrHPG-CONH2] (H-K(Dansyl)T[dR]KSS[dR]SNP[dR]G[dR][dR]HPG-NH2): the “Rel. Stab.” value in data set [2] was 1.

B1: phage HCA3 (peptide)
peptide: RHISEYSFANSHLMGGESKRKGCGINGSFSPTCPRSPTPAFRRT
modifications: cysteine pairing not given here; also: displayed as N-terminal pIII fusion on M13 phage
notes: M13 phage displaying this insert as N-terminal pIII fusion; whole phage in the ELISA; not shown: M13 pIII display protein and the vector-encoded flanking residues
Take B1: the OD in data set [3] is 0.038 OD 650 nm. In data set [4], the HPT1/BSA came to 1 ratio.
For SREEANWDGYKREMSHRSRFWDATHLSRPRRPANSGDPN (peptide, not shown: large carriers, also: displayed as N-terminal pIII fusion on M13 phage) [phage HAX9], the OD came out at 0.075 OD 650 nm in data set [3] and 0.382 OD 650 nm in data set [5]. Further, the HPT/BSA in data set [6] stood at 5.

B2: phage HAX40 (peptide)
peptide: REFAERRLWGCDDLSWRLDAEGCGPTPSNRAVKHRKPRPRSPAL
modifications: cysteine pairing not given here; also: displayed as N-terminal pIII fusion on M13 phage
notes: M13 phage displaying this insert as N-terminal pIII fusion; whole phage in the ELISA; also called H44; not shown: M13 pIII display protein and the vector-encoded flanking residues
Turning to B2, in data set [3], the OD was found to be 0.065 OD 650 nm. Also, in data set [4], the HPT/BSA stood at 15 ratio.

B3: phage HAX42 (peptide, not shown: large carriers)
peptide: SDHALGTNLRSDNAKEPGDYNCCGNGNSTGRKVFNRRRPSAIPT
modifications: cysteine pairing not given here; also: displayed as N-terminal pIII fusion on M13 phage
Regarding B3, the OD in data set [3] is 0.071 OD 650 nm; in data set [5] it was 0.32 OD 650 nm. For the same molecule, the HPT/BSA in data set [6] amounted to 5.
